Series [1] deals with Histidine-rich glycoprotein (HRG), enzymatically deglycosylated, purified from human pooled plasma (human) (UniProt P04196). In words: mass photometry; HRG at 50 nM in 50 mM Tris-HCl, 140 mM NaCl, 2 mM EDTA, pH 7.4; TwoMP (Refeyn); monomer and dimer.
For series [2] the target is unchanged. In words: mass photometry; HRG at 200 nM in 50 mM Tris-HCl, 140 mM NaCl, 2 mM EDTA, pH 7.4; TwoMP (Refeyn); monomer and dimer.
Series [3] concerns the molecule itself. The series can be described thus: mass photometry; HRG at 50 nM in 50 mM Tris-HCl, 140 mM NaCl, 2 mM EDTA, pH 7.4; TwoMP (Refeyn); monomer and dimer.

Two molecules from PMC12751054, “Investigating the conformational landscape of human histidine-rich glycoprotein using amide HDX-MS” (Biochemical Journal, 2025) can be followed below.

With “Histidine-rich glycoprotein (HRG), enzymatically deglycosylated, purified from human pooled plasma (from UniProt P04196 19-525) (natural protein)”, the stoichiometry N in series [1] and in series [2] was 2 throughout.

B1: Histidine-rich glycoprotein (HRG), native (fully glycosylated), purified from human pooled plasma (natural protein, UniProt P04196 19-525, looked up)
chain: VSPTDCSAVEPEAEKALDLINKRRRDGYLFQLLRIADAHLDRVENTTVYYLVLDVQESDCSVLSRKYWNDCEPPDSRRPSEIVIGQCKVIATRHSHESQDLRVIDFNCTTSSVSSALANTKDSPVLIDFFEDTERYRKQANKALEKYKEENDDFASFRVDRIERVARVRGGEGTGYFVDFSVRNCPRHHFPRHPNVFGFCRADLFYDVEALDLESPKNLVINCEVFDPQEHENINGVPPHLGHPFHWGGHERSSTTKPPFKPHGSRDHHHPHKPHEHGPPPPPDERDHSHGPPLPQGPPPLLPMSCSSCQHATFGTNGAQRHSHNNNSSDLHPHKHHSHEQHPHGHHPHAHHPHEHDTHRQHPHGHHPHGHHPHGHHPHGHHPHGHHPHCHDFQDYGPCDPPPHNQGHCCHGHGPPPGHLRRRGPGKGPRPFHCRQIGSVYRLPPLRKGEVLPLPEANFPSFPLPHHKHPLKPDNQPFPQSVSESCPGKFKSGFPQVSMFFTHTFPK
modifications: N-linked glycans at Asn63, Asn125, Asn202 and Asn344; O-linked glycans at Thr273 and Thr274
notes: Histidine-rich glycoprotein, human, UniProt P04196; printed residue numbers run to 525; Pooled plasma; also called native HRG; plasma-derived human HRG
As for B1, the stoichiometry N (commonly a count of units in the complex or per binding partner) in series [3] stood at 2.
